T1: Zn(II)Har150 (Porphyromonas gingivalis ATCC 33277) (UniProt B2RKX7)
T1 sequence: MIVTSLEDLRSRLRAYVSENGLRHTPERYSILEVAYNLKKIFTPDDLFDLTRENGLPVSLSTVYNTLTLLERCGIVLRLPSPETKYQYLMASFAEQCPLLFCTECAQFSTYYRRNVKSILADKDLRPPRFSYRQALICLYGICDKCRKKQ


Assays:
[1] = molecular target: T1, Zn(II)Har150 (Porphyromonas gingivalis ATCC 33277); test: EMSA
[2] = molecular target: T1, Zn(II)Har150 (Porphyromonas gingivalis ATCC 33277); test: competition
[3] = molecular target: the molecule itself; test: SEC

Molecule | binding [1] | binding [2] | stoichiometry N [3]
GGTGTTGATAACTCGGTCGCGCCTTGGTCGGCTTTCGTATAAGTGTCTGGAATGCAGTGGAATAGCGTTGTTTCCTTCGCTGTTTATATCTCAAGGTTATAACCATCTGAAAACAATATAGATACGATTCATCTGAATTATACTACACTTTTTGTCGATTGTTTTTTTACTCTTTTGTTTGAACCTTTGCTATCCCCAAAGGAGCAATGAACGACTGCTCTCAAAACGATATTTTTTTAG (double strand) [FAM-dnaA (PGN_0001) promoter] | binds |  | 
GGTGTTGATAACTCGGTCGCGCCTTGGTCGGCTTTCGTATAAGTGTCTGGAATGCAGTGGAATAGCGTTGTTTCCTTCGCTGTTTATATCTCAAGGTTATAACCATCTGAAAACAATATAGATACGATTCATCTGAATTATACTACACTTTTTGTCGATTGTTTTTTTACTCTTTTGTTTGAACCTTTGCTATCCCCAAAGGAGCAATGAACGACTGCTCTCAAAACGATATTTTTTTAG (double strand) [dnaA (PGN_0001) promoter 240 bp] | binds | binds | 
Zn(II)Har, recombinant Porphyromonas gingivalis Har (heme associated regulator, Fur orthologue PGN_1503) (natural protein, Porphyromonas gingivalis ATCC 33277, UniProt B2RKX7 1-166, looked up, Har (Fur family transcriptional regulator), P. gingivalis ATCC 33277, gene PGN_1503 (501 bp), full length; Factor Xa site (IEGR) immediately before the start of har; Measured mass of apo-Har 19157.46 Da fits the theoretical 19157.20 Da; also called PgHar; rHar; source: E. coli BL21(DE3), purified (GSTrap, on-column Factor Xa cleavage, cation exchange, size exclusion); not shown: GST, N-terminal, …) MIVTSLEDLRSRLRAYVSENGLRHTPERYSILEVAYNLKKIFTPDDLFDLTRENGLPVSLSTVYNTLTLLERCGIVLRLPSPETKYQYLMASFAEQCPLLFCTECAQFSTYYRRNVKSILADKDLRPPRFSYRQALICLYGICDKCRKKQSALKKAADKAAPKKKK |  |  | 2
Zn(II)C97A, recombinant P. gingivalis Har with Cys97 substituted with Ala (natural protein, also called HarC97A; source: E. coli BL21(DE3), purified (GSTrap, on-column Factor Xa cleavage, cation exchange, size exclusion); not shown: GST, N-terminal, cleaved) MIVTSLEDLRSRLRAYVSENGLRHTPERYSILEVAYNLKKIFTPDDLFDLTRENGLPVSLSTVYNTLTLLERCGIVLRLPSPETKYQYLMASFAEQAPLLFCTECAQFSTYYRRNVKSILADKDLRPPRFSYRQALICLYGICDKCRKKQSALKKAADKAAPKKKK |  |  | 2
Zn(II)Har150, recombinant P. gingivalis Har truncated by 16 amino acids at the C-terminus (domain or fragment, source: E. coli BL21(DE3), purified (GSTrap, on-column Factor Xa cleavage, cation exchange, size exclusion); not shown: GST, N-terminal, cleaved) MIVTSLEDLRSRLRAYVSENGLRHTPERYSILEVAYNLKKIFTPDDLFDLTRENGLPVSLSTVYNTLTLLERCGIVLRLPSPETKYQYLMASFAEQCPLLFCTECAQFSTYYRRNVKSILADKDLRPPRFSYRQALICLYGICDKCRKKQ |  |  | 2

— publication PMC4222909, “The Porphyromonas gingivalis Ferric Uptake Regulator Orthologue Binds Hemin and Regulates Hemin-Responsive Biofilm Development” (PLoS ONE, 2014)
